Experiments:
[1] = target: fatty acid synthase (FAS) α subunit, C-terminally fused to GFP (S. cerevisiae) (UniProt P19097); test: co-IP
[2] = target: T1, methionyl-tRNA synthetase MetRS, C-terminally fused to GFP (S. cerevisiae, UniProt P00958 1-751); test: selective ribosome profiling
T1 sequence: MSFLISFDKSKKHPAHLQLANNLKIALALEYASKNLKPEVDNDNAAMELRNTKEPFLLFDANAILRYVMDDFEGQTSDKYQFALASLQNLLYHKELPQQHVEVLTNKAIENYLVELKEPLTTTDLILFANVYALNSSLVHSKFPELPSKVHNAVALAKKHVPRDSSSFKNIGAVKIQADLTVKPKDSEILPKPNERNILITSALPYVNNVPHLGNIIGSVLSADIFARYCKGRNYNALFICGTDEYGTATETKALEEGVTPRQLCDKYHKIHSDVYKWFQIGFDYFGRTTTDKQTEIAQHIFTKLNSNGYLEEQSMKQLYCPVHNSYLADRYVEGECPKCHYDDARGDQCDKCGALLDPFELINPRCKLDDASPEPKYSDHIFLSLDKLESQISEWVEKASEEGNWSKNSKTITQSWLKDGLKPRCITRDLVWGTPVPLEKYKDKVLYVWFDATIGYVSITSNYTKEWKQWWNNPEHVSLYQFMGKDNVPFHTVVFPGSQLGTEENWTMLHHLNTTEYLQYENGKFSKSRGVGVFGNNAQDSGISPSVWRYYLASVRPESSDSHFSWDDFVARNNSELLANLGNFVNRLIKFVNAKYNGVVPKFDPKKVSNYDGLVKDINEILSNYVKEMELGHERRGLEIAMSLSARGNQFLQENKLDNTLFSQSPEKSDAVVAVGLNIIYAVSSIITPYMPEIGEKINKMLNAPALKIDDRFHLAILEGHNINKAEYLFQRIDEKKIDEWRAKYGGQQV

[3] = target: T2, fatty acid synthase (FAS) β subunit, C-terminally fused to GFP (S. cerevisiae, UniProt P07149 1-2051); test: selective ribosome profiling
T2 sequence (P07149 whole entry, the tested form may be a part): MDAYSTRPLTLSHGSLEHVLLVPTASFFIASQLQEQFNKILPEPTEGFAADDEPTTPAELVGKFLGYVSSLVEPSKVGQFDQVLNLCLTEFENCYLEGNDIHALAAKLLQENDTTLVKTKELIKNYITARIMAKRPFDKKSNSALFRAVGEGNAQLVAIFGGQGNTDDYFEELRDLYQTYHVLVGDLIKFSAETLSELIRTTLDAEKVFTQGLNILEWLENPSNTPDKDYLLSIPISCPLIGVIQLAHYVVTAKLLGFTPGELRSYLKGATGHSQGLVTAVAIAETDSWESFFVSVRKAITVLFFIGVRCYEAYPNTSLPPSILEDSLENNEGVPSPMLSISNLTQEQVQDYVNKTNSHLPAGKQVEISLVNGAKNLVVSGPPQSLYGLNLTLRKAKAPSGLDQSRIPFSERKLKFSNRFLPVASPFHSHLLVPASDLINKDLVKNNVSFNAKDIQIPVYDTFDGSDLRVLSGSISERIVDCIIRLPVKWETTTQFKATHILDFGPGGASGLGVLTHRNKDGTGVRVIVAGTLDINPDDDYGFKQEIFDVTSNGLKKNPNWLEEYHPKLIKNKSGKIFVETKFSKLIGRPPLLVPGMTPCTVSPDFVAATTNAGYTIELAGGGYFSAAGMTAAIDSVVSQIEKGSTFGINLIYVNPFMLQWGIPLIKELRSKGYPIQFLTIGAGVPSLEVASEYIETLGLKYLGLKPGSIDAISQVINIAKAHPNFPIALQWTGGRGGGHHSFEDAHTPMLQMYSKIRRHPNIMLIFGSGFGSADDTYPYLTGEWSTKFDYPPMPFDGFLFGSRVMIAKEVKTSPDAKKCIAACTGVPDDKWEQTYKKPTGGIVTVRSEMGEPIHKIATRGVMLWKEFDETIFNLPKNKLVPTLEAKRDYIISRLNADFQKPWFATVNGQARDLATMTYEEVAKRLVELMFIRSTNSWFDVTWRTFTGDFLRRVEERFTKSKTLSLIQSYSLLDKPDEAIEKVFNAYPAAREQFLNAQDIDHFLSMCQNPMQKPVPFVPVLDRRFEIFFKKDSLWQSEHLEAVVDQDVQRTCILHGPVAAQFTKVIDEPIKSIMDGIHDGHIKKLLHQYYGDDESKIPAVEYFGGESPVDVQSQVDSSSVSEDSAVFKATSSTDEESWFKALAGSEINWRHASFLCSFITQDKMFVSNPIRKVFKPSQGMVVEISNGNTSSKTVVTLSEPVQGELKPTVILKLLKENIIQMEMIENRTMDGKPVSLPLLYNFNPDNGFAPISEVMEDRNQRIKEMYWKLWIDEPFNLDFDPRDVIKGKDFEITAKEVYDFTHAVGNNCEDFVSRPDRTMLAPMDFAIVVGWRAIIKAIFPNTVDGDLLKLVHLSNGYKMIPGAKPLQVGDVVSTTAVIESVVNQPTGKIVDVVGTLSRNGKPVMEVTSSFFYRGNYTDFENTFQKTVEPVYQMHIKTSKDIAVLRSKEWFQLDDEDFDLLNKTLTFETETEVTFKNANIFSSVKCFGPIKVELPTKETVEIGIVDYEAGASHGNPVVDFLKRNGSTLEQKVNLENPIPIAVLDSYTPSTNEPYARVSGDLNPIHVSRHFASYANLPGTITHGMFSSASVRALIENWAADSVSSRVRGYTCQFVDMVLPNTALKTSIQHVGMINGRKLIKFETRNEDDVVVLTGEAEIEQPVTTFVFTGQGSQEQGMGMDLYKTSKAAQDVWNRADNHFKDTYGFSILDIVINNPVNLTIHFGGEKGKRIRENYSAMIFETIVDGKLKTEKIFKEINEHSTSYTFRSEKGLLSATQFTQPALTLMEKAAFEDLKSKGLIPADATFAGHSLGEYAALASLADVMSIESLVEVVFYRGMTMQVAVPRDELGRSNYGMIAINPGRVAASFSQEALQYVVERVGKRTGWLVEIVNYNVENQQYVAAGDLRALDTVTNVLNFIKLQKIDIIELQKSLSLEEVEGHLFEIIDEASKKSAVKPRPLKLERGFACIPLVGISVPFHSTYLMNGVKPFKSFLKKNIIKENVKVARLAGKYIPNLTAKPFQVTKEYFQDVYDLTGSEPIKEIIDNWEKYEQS

[4] = target: T2, fatty acid synthase (FAS) β subunit, …; test: co-IP

## FAS β subunit, untagged, of the mature FAS, P07149 1-2051
[1]
  stoichiometry N: 1

B1: nascent GluRS (ribosome-nascent chain complexes) (natural protein)
chain: MPSTLTINGKAPIVAYAELIAARIVNALAPNSIAIKLVDDKKAPAAKLDDATEDVFNKITSKFAAIFDNGDKEQVAKWVNLAQKELVIKNFAKLSQSLETLDSQLNLRTFILGGLKYSAADVACWGALRSNGMCGSIIKNKVDVNVSRWYTLLEMDPIFGEAHDFLSKSLLELKKSANVGKKKETHKANFEIDLPDAKMGEVVTRFPPEPSGYLHIGHAKAALLNQYFAQAYKGKLIIRFDDTNPSKEKEEFQDSILEDLDLLGIKGDRITYSSDYFQEMYDYCVQMIKDGKAYCDDTPTEKMREERMDGVASARRDRSVEENLRIFTEEMKNGTEEGLKNCVRAKIDYKALNKTLRDPVIYRCNLTPHHRTGSTWKIYPTYDFCVPIVDAIEGVTHALRTIEYRDRNAQYDWMLQALRLRKVHIWDFARINFVRTLLSKRKLQWMVDKDLVGNWDDPRFPTVRGVRRRGMTVEGLRNFVLSQGPSRNVINLEWNLIWAFNKKVIDPIAPRHTAIVNPVKIHLEGSEAPQEPKIEMKPKHKKNPAVGEKKVIYYKDIVVDKDDADVINVDEEVTLMDWGNVIITKKNDDGSMVAKLNLEGDFKKTKHKLTWLADTKDVVPVDLVDFDHLITKDRLEEDESFEDFLTPQTEFHTDAIADLNVKDMKIGDIIQFERKGYYRLDALPKDGKPYVFFTIPDGKSVNKYGAKK
[2]
  fold enrichment in footprints: ≥ 30 fold

B2: nascent FAS α subunit (ribosome-nascent chain complexes) (natural protein)
chain: MKPEVEQELAHILLTELLAYQFASPVRWIETQDVFLKDFNTERVVEIGPSPTLAGMAQRTLKNKYESYDAALSLHREILCYSKDAKEIYYTPDPSELAAKEEPAKEEAPAPTPAASAPAPAAAAPAPVAAAAPAAAAAEIADEPVKASLLLHVLVAHKLKKSLDSIPMSKTIKDLVGGKSTVQNEILGDLGKEFGTTPEKPEETPLEELAETFQDTFSGALGKQSSSLLSRLISSKMPGGFTITVARKYLQTRWGLPSGRQDGVLLVALSNEPAARLGSEADAKAFLDSMAQKYASIVGVDLSSAASASGAAGAGAAAGAAMIDAGALEEITKDHKVLARQQLQVLARYLKMDLDNGERKFLKEKDTVAELQAQLDYLNAELGEFFVNGVATSFSRKKARTFDSSWNWAKQSLLSLYFEIIHGVLKNVDREVVSEAINIMNRSNDALIKFMEYHISNTDETKGENYQLVKTLGEQLIENCKQVLDVDPVYKDVAKPTGPKTAIDKNGNITYSEEPREKVRKLSQYVQEMALGGPITKESQPTIEEDLTRVYKAISAQADKQDISSSTRVEFEKLYSDLMKFLESSKEIDPSQTTQLAGMDVEDALDKDSTKEVASLPNKSTISKTVSSTIPRETIPFLHLRKKTPAGDWKYDRQLSSLFLDGLEKAAFNGVTFKDKYVLITGAGKGSIGAEVLQGLLQGGAKVVVTTSRFSKQVTDYYQSIYAKYGAKGSTLIVVPFNQGSKQDVEALIEFIYDTEKNGGLGWDLDAIIPFAAIPEQGIELEHIDSKSEFAHRIMLTNILRMMGCVKKQKSARGIETRPAQVILPMSPNHGTFGGDGMYSESKLSLETLFNRWHSESWANQLTVCGAIIGWTRGTGLMSANNIIAEGIEKMGVRTFSQKEMAFNLLGLLTPEVVELCQKSPVMADLNGGLQFVPELKEFTAKLRKELVETSEVRKAVSIETALEHKVVNGNSADAAYAQVEIQPRANIQLDFPELKPYKQVKQIAPAELEGLLDLERVIVVTGFAEVGPWGSARTRWEMEAFGEFSLEGCVEMAWIMGFISYHNGNLKGRPYTGWVDSKTKEPVDDKDVKAKYETSILEHSGIRLIEPELFNGYNPEKKEMIQEVIVEEDLEPFEASKETAEQFKHQHGDKVDIFEIPETGEYSVKLLKGATLYIPKALRFDRLVAGQIPTGWNAKTYGISDDIISQVDPITLFVLVSVVEAFIASGITDPYEMYKYVHVSEVGNCSGSGMGGVSALRGMFKDRFKDEPVQNDILQESFINTMSAWVNMLLISSSGPIKTPVGACATSVESVDIGVETILSGKARICIVGGYDDFQEEGSFEFGNMKATSNTLEEFEHGRTPAEMSRPATTTRNGFMEAQGAGIQIIMQADLALKMGVPIYGIVAMAATATDKIGRSVPAPGKGILTTAREHHSSVKYASPNLNMKYRKRQLVTREAQIKDWVENELEALKLEAEEIPSEDQNEFLLERTREIHNEAESQLRAAQQQWGNDFYKRDPRIAPLRGALATYGLTIDDLGVASFHGTSTKANDKNESATINEMMKHLGRSEGNPVIGVFQKFLTGHPKGAAGAWMMNGALQILNSGIIPGNRNADNVDKILEQFEYVLYPSKTLKTDGVRAVSITSFGFGQKGGQAIVVHPDYLYGAITEDRYNEYVAKVSAREKSAYKFFHNGMIYNKLFVSKEHAPYTDELEEDVYLDPLARVSKDKKSGSLTFNSKNIQSKDSYINANTIETAKMIENMTKEKVSNGGVGVDVELITSINVENDTFIERNFTPQEIEYCSAQPSVQSSFAGTWSAKEAVFKSLGVKSLGGGAALKDIEIVRVNKNAPAVELHGNAKKAAEEAGVTDVKVSISHDDLQAVAVAVSTKK
[3]
  fold enrichment of selected footprints over total ribosome-protected footprints: ~40 fold

B3: FAS α subunit, untagged, of the mature FAS (natural protein)
chain: MKPEVEQELAHILLTELLAYQFASPVRWIETQDVFLKDFNTERVVEIGPSPTLAGMAQRTLKNKYESYDAALSLHREILCYSKDAKEIYYTPDPSELAAKEEPAKEEAPAPTPAASAPAPAAAAPAPVAAAAPAAAAAEIADEPVKASLLLHVLVAHKLKKSLDSIPMSKTIKDLVGGKSTVQNEILGDLGKEFGTTPEKPEETPLEELAETFQDTFSGALGKQSSSLLSRLISSKMPGGFTITVARKYLQTRWGLPSGRQDGVLLVALSNEPAARLGSEADAKAFLDSMAQKYASIVGVDLSSAASASGAAGAGAAAGAAMIDAGALEEITKDHKVLARQQLQVLARYLKMDLDNGERKFLKEKDTVAELQAQLDYLNAELGEFFVNGVATSFSRKKARTFDSSWNWAKQSLLSLYFEIIHGVLKNVDREVVSEAINIMNRSNDALIKFMEYHISNTDETKGENYQLVKTLGEQLIENCKQVLDVDPVYKDVAKPTGPKTAIDKNGNITYSEEPREKVRKLSQYVQEMALGGPITKESQPTIEEDLTRVYKAISAQADKQDISSSTRVEFEKLYSDLMKFLESSKEIDPSQTTQLAGMDVEDALDKDSTKEVASLPNKSTISKTVSSTIPRETIPFLHLRKKTPAGDWKYDRQLSSLFLDGLEKAAFNGVTFKDKYVLITGAGKGSIGAEVLQGLLQGGAKVVVTTSRFSKQVTDYYQSIYAKYGAKGSTLIVVPFNQGSKQDVEALIEFIYDTEKNGGLGWDLDAIIPFAAIPEQGIELEHIDSKSEFAHRIMLTNILRMMGCVKKQKSARGIETRPAQVILPMSPNHGTFGGDGMYSESKLSLETLFNRWHSESWANQLTVCGAIIGWTRGTGLMSANNIIAEGIEKMGVRTFSQKEMAFNLLGLLTPEVVELCQKSPVMADLNGGLQFVPELKEFTAKLRKELVETSEVRKAVSIETALEHKVVNGNSADAAYAQVEIQPRANIQLDFPELKPYKQVKQIAPAELEGLLDLERVIVVTGFAEVGPWGSARTRWEMEAFGEFSLEGCVEMAWIMGFISYHNGNLKGRPYTGWVDSKTKEPVDDKDVKAKYETSILEHSGIRLIEPELFNGYNPEKKEMIQEVIVEEDLEPFEASKETAEQFKHQHGDKVDIFEIPETGEYSVKLLKGATLYIPKALRFDRLVAGQIPTGWNAKTYGISDDIISQVDPITLFVLVSVVEAFIASGITDPYEMYKYVHVSEVGNCSGSGMGGVSALRGMFKDRFKDEPVQNDILQESFINTMSAWVNMLLISSSGPIKTPVGACATSVESVDIGVETILSGKARICIVGGYDDFQEEGSFEFGNMKATSNTLEEFEHGRTPAEMSRPATTTRNGFMEAQGAGIQIIMQADLALKMGVPIYGIVAMAATATDKIGRSVPAPGKGILTTAREHHSSVKYASPNLNMKYRKRQLVTREAQIKDWVENELEALKLEAEEIPSEDQNEFLLERTREIHNEAESQLRAAQQQWGNDFYKRDPRIAPLRGALATYGLTIDDLGVASFHGTSTKANDKNESATINEMMKHLGRSEGNPVIGVFQKFLTGHPKGAAGAWMMNGALQILNSGIIPGNRNADNVDKILEQFEYVLYPSKTLKTDGVRAVSITSFGFGQKGGQAIVVHPDYLYGAITEDRYNEYVAKVSAREKSAYKFFHNGMIYNKLFVSKEHAPYTDELEEDVYLDPLARVSKDKKSGSLTFNSKNIQSKDSYINANTIETAKMIENMTKEKVSNGGVGVDVELITSINVENDTFIERNFTPQEIEYCSAQPSVQSSFAGTWSAKEAVFKSLGVKSLGGGAALKDIEIVRVNKNAPAVELHGNAKKAAEEAGVTDVKVSISHDDLQAVAVAVSTKK
[4]
  stoichiometry N: 1

Reference: publication PMC6372068 (Nature, 2018)
